# Target: BlaC P107T (Mycobacterium tuberculosis)
# Assay: crystal structure; sitting-drop vapor diffusion at 20°C, protein 10 mg/mL in 100 mM sodium phosphate buffer pH 6.4; four molecules in the asymmetric unit
substance,measurement,value
BlaC P107T (enzyme),stoichiometry N,2

# From PMC10966351
